The series in a line: soluble on expression in E. coli; label from the status in PepcDB or PDB records.
For “MGSDKIHHHHHHMSNRHDADTPARLSSGIDGIDDILGGGLTPHRMYLVEGAPGTGKTTLALQFLLKGVEEGQGGLYITLSETRPELIAVAESHGWDISRFTILELLSDEGLDPQYEQTVLHPAEVELGETVRNVIQHVDELKPARIVLDSLSELRLLSQNPLRYRRQILALKRYFATRECTVLLLDDNSSDPGDVQLHSIAHGVISLDNLVHDYGGNRRRARVAKMRGIKFREGYHDFTLDTGGIHVYPRLVAAEHHADFSTEVVSTGTAGLDALLGGGLIPGTNALMIGPSGVGKTTTVVSCLIAALERGERCVYYVFDETLTTLMTRCATLGIYLAPHVESGLLTLRQIDPAEISPGEFASDVRRSVEKKGVRYVAIDSLNAYLQAMPGERYLLLQMHELLGYLNQQGIVTMLVLGQHGIIGEVQNDIDISYLSDVVVLFRYFEHHGEVLTAITAVKSRANAHERSIRQFRLGVNGVEVGDALRDFEGVLSGLPAYRGSTALLGATNRVIETPGK”, the “soluble on expression in E. coli” value is “not soluble”.

For the sequence “MSLSDDTIDRFFGYLNWLFNPFHGLKTTEVYDLIGTSSLTENALYLNLGYWRKADTIDEASEALALLVAKRGGMGPGDIVLDCGYGFGDQDILWARQLKPEKIIGLNITSSQVERARKRVADAGLEQSIDLREGSATAMPIENESIDLVVSVESAFHYRTREAFFREAFRVLRPGGRLVTADIVPTENSGNPFRRMEQWFSWNLVAGKFNIPQENYYLIPSYQNKLTKAGFVQIDIKSIRDDVYEPLHAYLAKNRTFFAKMHPLARIMAQLTLNRSAESVYAGLDYILSYAEKEGHHHHHH”, the “soluble on expression in E. coli” value was “soluble”.

On to “MGSDKIHHHHHHAATLLASCNKDEEETEIQGFKVLEYRPAPGQFINEGFDCQTMEEANAYAEERFNKKLYVSLGSFGGYITVKMPKEIKNRKGYDFGIIGNPFSGSSEPGIVWVSEDANGNGKADDVWYELKGSDEPERDYSVTYHRPDAAGDIPWEDNKGESGIIKYLPQYHDQMYYPNWIKEDSYTLKGSMLEARTEQEGGIWKNKDFGKGYADNWGSDMAKDDNGNYRYNQFDLDDAVDQNGNPVTLERIHFVKVQSAILKNVESIGEVSTEVVGFKAF”, for which the “soluble on expression in E. coli” value was “not soluble”.

As to “HPSIFAATDGHSSRLDVTMGMSYNNRFFASLMYRPTQAVGVSLGMQLGKFYAGYAFEWPTSVLAKASWGSHELLVSYSFPLSNTKNRDAKYKSIRFL”, the “soluble on expression in E. coli” value was “not soluble”.

“RIEDIETKNIQYEERVSVQADLGSQTLHVRGLIDSGNQLYDPLTKTPVMIIYIDKLEPIFGTAETMIIRNTDPLEAIEQLDDSFRFLDKMRLIPYRGVGQQNQFLLCVKPDHVTIMTKEEMISADKCLIGISTTKLSADGEFDAIIHPKMLSGKAVKHVS”: the “soluble on expression in E. coli” value is “soluble”.

“SFWGWLNAVFNKVDHDRIRDVGPDRAASEWLLRCGAMVRYHGQQRWQKDYNHLPTGPLDKYKIQAIDATDSCIMSIGFDHMEGLQYVEKIRLCKCHYIEDGCLERLSQLENLQKSMLEMEIISCGNVTDKGIIALHHFRNLKYLFLSDLPGVKEKEKIVQAFKTSLPSLELKLDLK”: the “soluble on expression in E. coli” value is “soluble”.

As for “MSLQHNGHSYTVEGLINDSTLNGQTLYISRYDDGMKVDSTQVTNGQFKFTGKADIPCFCRIDAGREYANFILEGGNIQVNVLTHNDPKGTPMNEEYTHISDKTSELVTELRKRHAAIEQQTEDKSEQLRLKKEYADTYWHPTYTRLYKDMFMKNPDNALGEFAIRELAMCALPEEMDTIFAASGPWLKSLSVYHRIEKQFQGMKATAVGQKFTDFSGKTIDGAASSLSDFVGKGQYTLVDFWASWCGPCRSESPHIAELYNTYKDKGLTVLGVAVWDKPENTKKAIKELNIDWPQIIDTGMTPMDLYGVKGIPFILLFGPDGTIIARDLRGEGMKNKVAEVLNNKEGHHHHHH”, the “soluble on expression in E. coli” value is “soluble”.

(Values after the DeepSol protein solubility set.)
